Results taken from patent US20110311475A1 (published 2011).

T1: Recombinant Human IL-4 Rα Fc Chimera protein (R&D Systems) (human, UniProt P24394 26-231)
T1 construct: In the assay it was coupled to DyLight 649 conjugated Protein A; also called IL-4Rα subunit; Fc part of the bought chimera not given
T1 sequence (looked up): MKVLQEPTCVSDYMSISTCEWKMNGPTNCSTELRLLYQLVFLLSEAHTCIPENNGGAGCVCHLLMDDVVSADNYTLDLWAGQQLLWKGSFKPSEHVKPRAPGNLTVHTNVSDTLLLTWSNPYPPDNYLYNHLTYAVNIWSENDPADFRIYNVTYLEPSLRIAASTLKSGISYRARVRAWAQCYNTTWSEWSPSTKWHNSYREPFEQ

T2: IL2 Receptor beta protein (Fc Chimera Active, Abcam plc) (human, UniProt P14784 27-240)
T2 construct: In the assay it was coupled to DyLight 649 conjugated Protein A; also called IL-2Rβ subunit; human Interleukin-2 receptor beta (CD122); Fc part of the bought chimera not given
T2 sequence (looked up): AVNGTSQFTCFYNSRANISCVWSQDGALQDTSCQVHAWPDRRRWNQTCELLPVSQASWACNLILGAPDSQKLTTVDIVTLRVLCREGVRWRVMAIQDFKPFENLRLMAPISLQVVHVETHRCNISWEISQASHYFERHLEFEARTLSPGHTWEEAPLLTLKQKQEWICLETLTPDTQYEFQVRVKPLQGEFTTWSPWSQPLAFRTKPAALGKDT


Columns and labels:
[1] = target: T1, Recombinant Human IL-4 Rα Fc Chimera …; test: bead-based flow cytometric immunoassay, receptor-Fc chimera/Protein A-DyLight 649 (FIG. 19D)
From the text: (§1) Both goat anti-human IL-21 and rabbit anti-human IL-21 antibodies were initially tested using a Western blot technique to confirm suitable detection of the IL-21 variant proteins with the predicted size. The success of antibody-to-bead conjugation was verified using PE Goat anti-Rabbit IgG Detector (BD Biosciences). To detect the receptor interaction of bead-captured IL-21 variants with the Interleukin-21 receptor proprietary subunit, the Interleukin-4 receptor alpha subunit, the Interleukin-2 receptor alpha or the Interleukin-2 receptor beta, appropriate receptor-Fc-chimera proteins were coupled with a Protein-A-fluorochrome complex suitable for flow cytometric evaluation. […] 50 μl of antibody-coated beads and serial dilutions of IL-21 variant proteins, with final concentrations ranging from 100 pg/ml to 1 μg/ml, were incubated together with the fluorescence conjugated receptor-chimera-Protein-A complexes in excess in 96-well plates for 3 h on a titer plate shaker. […] Bead particles were discriminated on the basis of size and fluorescence (see FIGS. 19A and B) on a BD FACSCanto II system with BD FACSDiva software (BD Biosciences). […]

[2] = target: T2, IL2 Receptor beta protein (Fc Chimera …); test: bead-based flow cytometric immunoassay, receptor-Fc chimera/Protein A-DyLight 649 (FIG. 19C)
From the text: as §1

| binding result [1] | binding result [2] | Binder |
| --- | --- | --- |
| binds |  | IL-21/IL-4 hybrid protein (ligand, also called IL-21/IL-4 hybrid variant; IL-21/IL-4 variant protein) QGQDRHMITLQEIIKTLNSLTEQKTLVPEFLPAPEDVETNCEWSAFSCFQKAQLKSAQQFHRHKQLIRFLKRLDRNLWGLAGLNSCPSCDSYEKKPPKEFLERFKSLLQKMIHQHLSSRTHGSEDS |
|  | binds | IL-21/IL-2 hybrid protein (ligand, also called IL-21 variant) QGQDRHMIRMRQLIDIVDQLKNYVNDLVPEFLPAPEDVETNCEWSAFSCFQKAQLKSANTGNNERIINVSISNINVIVLELKGSETTFMCDSYEKKPPKEFLERFKSLLQKMIHQHLSSRTHGSEDS |
